Source: patent publication US20140271457A1 (AbbVie / Abbott, published 2014)
Positions count from the first letter of the chain named.

B1: DVD2719 (bispecific antibody, IgG1)
VH: EVQLVESGGGLVQPGGSLRLSCAASGFSLTNNNVNWVRQAPGKGLEWVGGVWAGGATDYNSALKSRFTISRDNSKNTAYLQMNSLRAEDTAVYYCARDGGYSSSTLYAMDAWGQGTLVTVSSASTKGPEVQLVESGGGLVQPGGSLRLSCAASGFTFSNYGVTWVRQAPGKGLEWVSMIWADGSTHYASSVKGRFTISRDNSKNTLYLQMNSLRAEDTAVYYCAREWQHGPVAYWGQGTLVTVSS
VL: DIQMTQSPSSLSASVGDRVTITCRASEDIYNALAWYQQKPGKAPKLLIYNTDTLHTGVPSRFSGSGSGTDYTLTISSLQPEDFATYFCQHYFHYPRTFGQGTKVEIKRTVAAPDIQMTQSPSSLSASVGDRVTITCRASQLVSSAVAWYQQKPGKAPKLLIYWASARHTGVPSRFSGSGSGTDFTLTISSLQPEDFATYYCQQHYKTPFTFGQGTKLEIKR
B2: DVD2771 (bispecific antibody, IgG1)
VH: B1 VH with T163E, M178G, S189D, S190T, G193S
VL: DIQMTQSPSSLSASVGDRVTITCRASEDIYNALAWYQQKPGKAPKLLIYNTDTLHTGVPSRFSGSGSGTDYTLTISSLQPEDFATYFCQHYFHYPRTFGQGTKVEIKRTVAAPSVFIFPPDIQMTQSPSSLSASVGDRVTITCKASQLVSSAVAWYQQKPGKAPKLLIYWASTLHTGVPSRFSGSGSGTDFTLTISSLQPEDFATYYCQQHYRTPFTFGQGTKLEIKR
B3: DVD2769 (bispecific antibody, IgG1)
VH: B1 VH with T163E, M178G, S189D, S190T, G193S
VL: B1 VL with R137K, A166T, R167L, K206R
B4: DVD2722 (bispecific antibody, IgG1)
VH: EVQLVESGGGLVQPGGSLRLSCAASGFSLTNNNVNWVRQAPGKGLEWVGGVWAGGATDYNSALKSRFTISRDNSKNTAYLQMNSLRAEDTAVYYCARDGGYSSSTLYAMDAWGQGTLVTVSSASTKGPSVFPLAPEVQLVESGGGLVQPGGSLRLSCAASGFTFSNYGVTWVRQAPGKGLEWVSMIWADGSTHYASSVKGRFTISRDNSKNTLYLQMNSLRAEDTAVYYCAREWQHGPVAYWGQGTLVTVSS
VL: B1 VL
B5: DVD2721 (bispecific antibody, IgG1)
VH: B1 VH
VL: B2 VL with K144R, T173A, L174R, R213K
B6: DVD2716 (bispecific antibody, IgG1)
VH: EVQLVESGGGLVQPGGSLRLSCAASGFTFSNYGVTWVRQAPGKGLEWVSMIWADGSTHYASSVKGRFTISRDNSKNTLYLQMNSLRAEDTAVYYCAREWQHGPVAYWGQGTLVTVSSASTKGPEVQLVESGGGLVQPGGSLRLSCAASGFSLTNNNVNWVRQAPGKGLEWVGGVWAGGATDYNSALKSRFTISRDNSKNTAYLQMNSLRAEDTAVYYCARDGGYSSSTLYAMDAWGQGTLVTVSS
VL: DIQMTQSPSSLSASVGDRVTITCRASQLVSSAVAWYQQKPGKAPKLLIYWASARHTGVPSRFSGSGSGTDFTLTISSLQPEDFATYYCQQHYKTPFTFGQGTKLEIKRTVAAPSVFIFPPDIQMTQSPSSLSASVGDRVTITCRASEDIYNALAWYQQKPGKAPKLLIYNTDTLHTGVPSRFSGSGSGTDYTLTISSLQPEDFATYFCQHYFHYPRTFGQGTKVEIKR
B7: DVD2764 (bispecific antibody, IgG1)
VH: B6 VH with T35E, M50G, S61D, S62T, G65S
VL: DIQMTQSPSSLSASVGDRVTITCKASQLVSSAVAWYQQKPGKAPKLLIYWASTLHTGVPSRFSGSGSGTDFTLTISSLQPEDFATYYCQQHYRTPFTFGQGTKLEIKRTVAAPDIQMTQSPSSLSASVGDRVTITCRASEDIYNALAWYQQKPGKAPKLLIYNTDTLHTGVPSRFSGSGSGTDYTLTISSLQPEDFATYFCQHYFHYPRTFGQGTKVEIKR
B8: DVD2717 (bispecific antibody, IgG1)
VH: EVQLVESGGGLVQPGGSLRLSCAASGFTFSNYGVTWVRQAPGKGLEWVSMIWADGSTHYASSVKGRFTISRDNSKNTLYLQMNSLRAEDTAVYYCAREWQHGPVAYWGQGTLVTVSSASTKGPSVFPLAPEVQLVESGGGLVQPGGSLRLSCAASGFSLTNNNVNWVRQAPGKGLEWVGGVWAGGATDYNSALKSRFTISRDNSKNTAYLQMNSLRAEDTAVYYCARDGGYSSSTLYAMDAWGQGTLVTVSS
VL: B7 VL with K24R, T53A, L54R, R93K
B9: DVD2767 (bispecific antibody, IgG1)
VH: B8 VH with T35E, M50G, S61D, S62T, G65S
VL: B7 VL
B10: DVD2718 (bispecific antibody, IgG1)
VH: EVQLVESGGGLVQPGGSLRLSCAASGFSLTNNNVNWVRQAPGKGLEWVGGVWAGGATDYNSALKSRFTISRDNSKNTAYLQMNSLRAEDTAVYYCARDGGYSSSTLYAMDAWGQGTLVTVSSGGGGSGGGGSEVQLVESGGGLVQPGGSLRLSCAASGFTFSNYGVTWVRQAPGKGLEWVSMIWADGSTHYASSVKGRFTISRDNSKNTLYLQMNSLRAEDTAVYYCAREWQHGPVAYWGQGTLVTVSS
VL: DIQMTQSPSSLSASVGDRVTITCRASEDIYNALAWYQQKPGKAPKLLIYNTDTLHTGVPSRFSGSGSGTDYTLTISSLQPEDFATYFCQHYFHYPRTFGQGTKVEIKRGGSGGGGSGDIQMTQSPSSLSASVGDRVTITCRASQLVSSAVAWYQQKPGKAPKLLIYWASARHTGVPSRFSGSGSGTDFTLTISSLQPEDFATYYCQQHYKTPFTFGQGTKLEIKR
B11: DVD2768 (bispecific antibody, IgG1)
VH: B10 VH with T167E, M182G, S193D, S194T, G197S
VL: B10 VL with R141K, A170T, R171L, K210R
B12: DVD2763 (bispecific antibody, IgG1)
VH: EVQLVESGGGLVQPGGSLRLSCAASGFTFSNYGVEWVRQAPGKGLEWVSGIWADGSTHYADTVKSRFTISRDNSKNTLYLQMNSLRAEDTAVYYCAREWQHGPVAYWGQGTLVTVSSGGGGSGGGGSEVQLVESGGGLVQPGGSLRLSCAASGFSLTNNNVNWVRQAPGKGLEWVGGVWAGGATDYNSALKSRFTISRDNSKNTAYLQMNSLRAEDTAVYYCARDGGYSSSTLYAMDAWGQGTLVTVSS
VL: DIQMTQSPSSLSASVGDRVTITCKASQLVSSAVAWYQQKPGKAPKLLIYWASTLHTGVPSRFSGSGSGTDFTLTISSLQPEDFATYYCQQHYRTPFTFGQGTKLEIKRGGSGGGGSGDIQMTQSPSSLSASVGDRVTITCRASEDIYNALAWYQQKPGKAPKLLIYNTDTLHTGVPSRFSGSGSGTDYTLTISSLQPEDFATYFCQHYFHYPRTFGQGTKVEIKR

Legend:
[1] = target: Recombinant Human TNF-α/TNFSF1A (human, UniProt P01375 77-233); assay: cell-based or functional assay
Recombinant Human β-NGF = Recombinant Human β-NGF (human, UniProt P01138 122-241); assay: cell-based or functional assay
Recombinant Human β-NGF, sequence (P01138 122-241 limits assumed): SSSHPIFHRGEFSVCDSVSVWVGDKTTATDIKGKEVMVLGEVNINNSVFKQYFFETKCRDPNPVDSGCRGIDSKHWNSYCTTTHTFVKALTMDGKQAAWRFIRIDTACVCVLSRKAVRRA

Recombinant Human TNF-α/TNFSF1A, sequence (P01375 77-233 limits assumed): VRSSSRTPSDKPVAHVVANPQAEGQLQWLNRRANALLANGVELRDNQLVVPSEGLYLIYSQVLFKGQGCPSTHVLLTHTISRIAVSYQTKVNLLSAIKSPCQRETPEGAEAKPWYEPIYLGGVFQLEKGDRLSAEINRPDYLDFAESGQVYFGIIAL

Row | Binder | C-Terminal VD huTNFα Neutralization Assay IC50 [1] [pM] | N-Terminal VD NGF Neutralization Assay IC50 (Recombinant Human β-NGF) [pM] | N-Terminal VD huTNFα Neutralization Assay IC50 [1] [pM] | C-Terminal VD NGF Neutralization Assay IC50 (Recombinant Human β-NGF) [pM]
1 | B1 | 126 | 19 | – | –
2 | B2 | 60 | 37 | – | –
3 | B3 | 222 | 1 | – | –
4 | B4 | 190 | 53 | – | –
5 | B5 | 29 | 41 | – | –
6 | B6 | – | – | 14 | 624
7 | B7 | – | – | 12 | 4100
8 | B8 | – | – | 278 | 936
9 | B9 | – | – | 10 | 646
10 | B10 | 249 | 8 | – | –
11 | B11 | 189 | 3 | – | –
12 | B12 | – | – | 4 | 871
